Data as given in paper PMC11818005, “Elucidation of the key flavonol biosynthetic pathway in golden Camellia and its application in genetic modification of tomato fruit metabolism” (Horticulture Research, 2024).

Assays:
Assay in all cases: UPLC-UV of flavonol product, initial kinetics
Details in all cases: 100 mM Tricine pH 7.5, 0.1 mM FeSO4, 10 mM ascorbate, 10 mM 2-oxoglutarate, 28°C
[1] = substrate: O=C1c2c(O)cc(O)cc2O[C@H](c2ccc(O)c(O)c2)[C@H]1O; assay type: biochemical, Camellia nitidissima
Description: (§1) UPLC-UV of flavonol product, initial kinetics on CnFLS1

[2] = substrate: O=C1c2c(O)cc(O)cc2O[C@H](c2ccc(O)cc2)[C@H]1O; assay type: biochemical, Camellia nitidissima
Description: as §1

[3] = substrate: O=C1c2c(O)cc(O)cc2O[C@H](c2ccc(O)c(O)c2)[C@H]1O; assay type: biochemical, Arabidopsis thaliana
Description: (§2) UPLC-UV of flavonol product, initial kinetics on AtFLS1

[4] = substrate: O=C1c2c(O)cc(O)cc2O[C@H](c2ccc(O)cc2)[C@H]1O; assay type: biochemical, Arabidopsis thaliana
Description: as §2

| Protein | Km [1] [µM] | kcat [1] [s⁻¹] | kcat/Km [1] [M⁻¹ s⁻¹] | Km [2] [µM] | kcat [2] [s⁻¹] | kcat/Km [2] [M⁻¹ s⁻¹] | Km [3] [µM] | kcat [3] [s⁻¹] | kcat/Km [3] [M⁻¹ s⁻¹] | Km [4] [µM] | kcat [4] [s⁻¹] | kcat/Km [4] [M⁻¹ s⁻¹] |
| --- | --- | --- | --- | --- | --- | --- | --- | --- | --- | --- | --- | --- |
| CnFLS1 (Camellia nitidissima) (protein) MELERVQVIASLSKCIDTIPAEYIRSENEQPAITTIQGKVLEVPVIDLSNDSDDQNIVQMVAEACRDWGIFQVVNHGIPDEVIGNLQRVGKDFFELPQEEKEVYAKPPESKSVEGYGTKLQKEVEGKKGWVDHLFHKIWPPSAINYKFWPKNPPSYREANEVYAERLRAVADKLFRWLSLGLGLEGHEVKEAVGGDDLIYLMKINYYPPCPRPDLALGVVAHTDMSTLTILVPNEVPGLQVFKDDHWYEVKYIPNALIVHIGDQIEIVSNGKYKAVFHRSTVNKETTRMSWPVFIEPSPEVEVGPHPKLIDDENPPKYKTKKYEDYMYCKLNKLPQ | 18.68 | 0.02 | 1320 | 60.63 | 0.08 | 1300 |  |  |  |  |  |  |
| AtFLS1 (Arabidopsis thaliana) (protein, cloned for comparison with CnFLS1 (pET28b, E. coli Rosetta (DE3), Ni-NTA purified)) MEVERVQDISSSSLLTEAIPLEFIRSEKEQPAITTFRGPTPAIPVVDLSDPDEESVRRAVVKASEEWGLFQVVNHGIPTELIRRLQDVGRKFFELPSSEKESVAKPEDSKDIEGYGTKLQKDPEGKKAWVDHLFHRIWPPSCVNYRFWPKNPPEYREVNEEYAVHVKKLSETLLGILSDGLGLKRDALKEGLGGEMAEYMMKINYYPPCPRPDLALGVPAHTDLSGITLLVPNEVPGLQVFKDDHWFDAEYIPSAVIVHIGDQILRLSNGRYKNVLHRTTVDKEKTRMSWPVFLEPPREKIVGPLPELTGDDNPPKFKPFAFKDYSYRKLNKLPLD |  |  |  |  |  |  | 29.89 | 0.02 | 794 | 95.01 | 0.11 | 1180 |
